The values below come from US20250382355A1 (Merck Sharp & Dohme, published 2025).

Sequences and labels used below:
B1: 11F8 VHH-Fc (Fc fusion)
chain: QVQLVESGGGLVQAGGSLRLSCAASGRTVGYYAVGWFRQAPGKERDFVAAISWSGRNTNYADSVTGRFTIFRDNAKNTVDLQMNSLKPEDTAVYYCAADYWNYGSGSEVPNNYDTWGQGTQVTVSS
B2: 7A9 VHH-Fc (Fc fusion)
chain: QVQLVESGGGLVQAGGSLRLSCSASGGTASRSAMGWFRQAPGKEREFVAGISRRNSGSTYVADSYEDSVKGRFTISRDNAKNTIYLQMNSLKPEDTAVYYCAAEPTLGWYVPRRSVEYEYWGQGTQVTVSS
B3: 11F5 VHH-Fc (Fc fusion)
chain: QVQLVESGGGAVQAGDSLRLSCTASGRTFSTYAVGWFRQAPGKERELLAAITGSGRNPYYPDSLKGRFTISREYAKLPVYLQMNSLKPEDTAVYYCAARRGAIATMPLDYDHWGQGTQVTVSS
B4: 19B8 VHH-Fc (Fc fusion)
chain: QVQLVESGGGLVQAGGSLRLSCAASGRTFTNYAMGWFRQAPGKEREFVAAISWSGGGTNYADSVKGRFTISRDNAKNTVYLQMNSPKPEDTAVYYCATTLGYYGSSSRLYEYWGQGTQVTVSS
B5: S3_44 VHH-Fc (Fc fusion)
chain: QVQLVESGGGLVQPGGSLRLSCARSENNFSINAMAWYRQAPGKQRELVAAITTAGTTNYADSVKGRFTISRDNAKTTIYLQMNSLKPEDTAVYYCNLWAGTRDDLNEYWGQGTQVTVSS
B6: S3_29 VHH-Fc (Fc fusion)
chain: B5 chain with A54S
B7: 3D4 VHH-Fc (Fc fusion)
chain: QVQLVESGGGLVQPGGSLRLSCAASGFTLDLNSIGWFRQAPGKEREGVSCISPSGSRMHYADSVKGRFTISRDNAKNTVYLQMNSLKPEDTAVYYCATGSPSYHYCSMYGLEYDSWGQGTQVTVPS
B8: 19C10 VHH-Fc (Fc fusion)
chain: B7 chain with G55A, R57S, M58T, S100T, S115D, P125S
B9: 20D11 VHH-Fc (Fc fusion)
chain: QVQLVESGGGLVQAGGSLRLSCAASGRTSSIYSVGWFRQAPGKERELVAGITWSGGTTYYSDSVKGRFTISRDNAKNTVNLQMNNLKPEDTAIYYCAVDRYSMTMSARDYDYWGQGTQVTVSS
B10: 14F3 VHH-Fc (Fc fusion)
chain: B9 chain with S33G, G50L, R72K, N80F, R100T, D111E
B11: 16H7 VHH-Fc (Fc fusion)
chain: QVQLVESGGGLVQAGGSLRLSCAASGRAFSKDTMGWFRQAPGKEREFVAVISASGDSTYYADFVKGRFTISRDNAKNTEYLQMNSLKPEDTAVYHCAADGARAYYSINAHRYSWAYNYWGQGTQVTVSS

Where a chain is given by its changes, count along the chain named.

The first assay addresses SARS-CoV spike protein on recombinant CHO K1 cells (SARS-CoV, UniProt P59594 14-1255). Put plainly: FACS on CHO K1 cells.
Usually EC50 stands for the concentration that produces a half-maximal response. Take B1: the EC50 was determined as 90 pM.

With B2, the EC50 was found to be 50 pM.

The target of another assay is T1, SARS-CoV-2 spike protein on recombinant CHO K1 cells (SARS-CoV-2, UniProt P0DTC2 14-1273).
T1 construct: whole, on cells
The assay can be described thus: FACS on CHO K1 cells.
As for B1, the EC50 came out at 80 pM.

In the case of B3, the EC50 was 40 pM.

In the case of B4, the EC50 was 40 pM.

With B5, the EC50 stood at 80 pM.

On to B6, for which the EC50 was found to be 30 pM.

In the case of B7, the EC50 worked out at 150 pM.

Turning to B8, the EC50 turned out to be 170 pM.

Regarding B9, the EC50 stood at 80 pM.

On to B10, for which the EC50 worked out at 60 pM.

Regarding B2, the EC50 came to 80 pM.

As for B11, the half-maximal effective concentration (EC50) was found to be 310 pM.

The target in a further assay is T2, MERS spike protein on recombinant CHO K1 cells (MERS-CoV, UniProt K9N5Q8 18-1353).
T2 sequence: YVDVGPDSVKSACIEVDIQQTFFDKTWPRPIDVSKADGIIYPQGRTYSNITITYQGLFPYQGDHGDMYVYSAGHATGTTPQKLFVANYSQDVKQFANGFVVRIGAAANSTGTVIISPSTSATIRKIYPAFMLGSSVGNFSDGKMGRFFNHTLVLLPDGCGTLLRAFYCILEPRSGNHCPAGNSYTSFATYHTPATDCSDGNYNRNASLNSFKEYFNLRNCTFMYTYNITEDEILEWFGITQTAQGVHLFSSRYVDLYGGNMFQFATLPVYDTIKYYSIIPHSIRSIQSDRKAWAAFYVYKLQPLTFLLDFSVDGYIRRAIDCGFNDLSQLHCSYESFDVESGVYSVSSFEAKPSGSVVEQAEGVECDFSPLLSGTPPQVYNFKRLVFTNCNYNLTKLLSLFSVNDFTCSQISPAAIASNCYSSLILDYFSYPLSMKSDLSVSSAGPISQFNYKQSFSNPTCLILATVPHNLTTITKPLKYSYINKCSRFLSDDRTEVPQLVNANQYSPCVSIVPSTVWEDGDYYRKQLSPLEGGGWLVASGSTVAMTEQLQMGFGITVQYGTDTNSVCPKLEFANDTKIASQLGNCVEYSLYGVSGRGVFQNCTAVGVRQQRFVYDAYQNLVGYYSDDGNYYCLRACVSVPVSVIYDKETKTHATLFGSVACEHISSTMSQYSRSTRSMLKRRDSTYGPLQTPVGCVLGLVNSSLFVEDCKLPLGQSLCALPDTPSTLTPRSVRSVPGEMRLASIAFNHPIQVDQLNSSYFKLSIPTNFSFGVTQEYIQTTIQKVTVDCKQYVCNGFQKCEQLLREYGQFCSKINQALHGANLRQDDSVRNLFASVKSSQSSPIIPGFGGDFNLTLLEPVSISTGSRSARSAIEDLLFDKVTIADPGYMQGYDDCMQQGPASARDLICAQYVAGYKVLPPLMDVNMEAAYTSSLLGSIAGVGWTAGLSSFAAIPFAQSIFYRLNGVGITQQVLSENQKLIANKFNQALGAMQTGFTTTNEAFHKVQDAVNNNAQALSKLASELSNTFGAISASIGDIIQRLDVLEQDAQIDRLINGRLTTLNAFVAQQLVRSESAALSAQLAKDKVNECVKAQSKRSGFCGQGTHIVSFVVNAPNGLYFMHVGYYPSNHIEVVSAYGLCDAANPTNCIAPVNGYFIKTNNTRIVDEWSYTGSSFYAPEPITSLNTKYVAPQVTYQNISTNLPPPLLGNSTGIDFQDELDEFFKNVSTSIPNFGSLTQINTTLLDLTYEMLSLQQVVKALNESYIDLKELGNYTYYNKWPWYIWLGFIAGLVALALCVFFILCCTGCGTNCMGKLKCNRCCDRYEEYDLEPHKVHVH
Put plainly: FACS on CHO K1 cells.
Take B1: the binding result is “no binding”.

Take B3: the binding result is recorded as “no binding”.

On to B4, for which the binding result is recorded as “no binding”.

For B5, the EC50 was determined as 110 pM.

As for B6, the EC50 was found to be 50 pM.

For the molecule B7, the binding result is “no binding”.

In the case of B8, the binding result is “no binding”.

For B9, the binding result is reported as “no binding”.

As to B10, the binding result is recorded as “no binding”.

For the molecule B2, the binding result is given as “no binding”.

With B11, the binding result is “no binding”.

A further assay addresses SARS-CoV spike on rVSV-deltaG-Luc pseudovirus (SARS-CoV, UniProt P59594 14-1236). The assay can be described thus: cell-based or functional assay.
For the molecule B1, the “pseudovirus neutralization IC50” value was 207000 pM.

Take B4: the “pseudovirus neutralization IC50” value worked out at 42000 pM.

As to B7, the “pseudovirus neutralization IC50” value was 400 pM.

B8: the “pseudovirus neutralization IC50” value was determined as 450 pM.
